Measurements as given in patent publication US20130052739.

target: T1, FLP recombinase (native yeast) (Saccharomyces cerevisiae) (UniProt P03870); test: not given; conditions: in vitro co-integration FRT1+FRT1, 10 mM MgCl2, 5 mM DTT
T1 sequence: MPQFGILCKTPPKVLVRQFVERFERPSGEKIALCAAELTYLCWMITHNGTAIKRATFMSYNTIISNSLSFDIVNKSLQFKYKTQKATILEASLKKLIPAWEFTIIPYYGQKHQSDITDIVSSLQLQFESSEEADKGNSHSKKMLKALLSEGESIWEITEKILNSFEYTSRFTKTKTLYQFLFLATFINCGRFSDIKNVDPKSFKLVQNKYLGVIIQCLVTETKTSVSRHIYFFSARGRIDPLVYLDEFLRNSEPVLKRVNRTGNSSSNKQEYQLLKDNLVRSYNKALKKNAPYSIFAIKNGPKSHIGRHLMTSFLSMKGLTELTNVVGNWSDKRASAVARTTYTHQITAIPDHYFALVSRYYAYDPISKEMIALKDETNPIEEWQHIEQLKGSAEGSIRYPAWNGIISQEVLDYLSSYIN

Work on “AGTTCCTATACTTTCTAGAGAATAGGAACT (double strand) [FRT1 (wild-type minimal FRT)]” yielded an activity (% co-integrants at 2 h) of 1.03.

same assay, conditions: in vitro co-integration FRT5+FRT5, 10 mM MgCl2, 5 mM DTT

“AGTTCCTATACTCTTTTGAGAATAGGAACT (double strand) [FRT5]” was tested, and the activity (% co-integrants at 2 h) was 0.09.

same assay, conditions: in vitro co-integration FRT6+FRT6, 10 mM MgCl2, 5 mM DTT

With “AGTTCCTATACTTTTTGAAGAATAGGAACT (double strand) [FRT6]” the activity (% co-integrants at 2 h) was 0.27.

target: T1, FLP recombinase (native yeast) (Saccharomyces cerevisiae); test: cleavage_in_vitro; conditions: 30 C, 10 mM MgCl2

Compared with “AGTTCCTATACTATACAAAGAATAGGAACT (double strand) [FRT70]”, “AGTTCCTATACTCCACAGAGAATAGGAACT (double strand) [FRT55]” is lower in activity (% excision efficiency relative to FRT1): 25 for the first, 7 for the second.

Going from “AGTTCCTATACTCTATGTAGAATAGGAACT (double strand) [FRT12]” to “AGTTCCTATACTCTCTAGAGAATAGGAACT (double strand) [FRT89]”, the activity (% excision efficiency relative to FRT1) falls from 102 to 39.

Compared with “AGTTCCTATACTCTCTTGAGAATAGGAACT (double strand) [FRT45]”, “AGTTCCTATACTCTTTTGAGAATAGGAACT (double strand) [FRT5]” is higher in activity (% excision efficiency relative to FRT1): 5 for the first, 15 for the second.

Compared with “AGTTCCTATACTGAAAAGAGAATAGGAACT (double strand) [FRT78]”, “AGTTCCTATACTGAGAGAAGAATAGGAACT (double strand) [FRT74]” is lower in activity (% excision efficiency relative to FRT1): 60 for the first, 5 for the second.

Compared with “AGTTCCTATACTGATTGGAGAATAGGAACT (double strand) [FRT65]”, “AGTTCCTATACTGTAAAAAGAATAGGAACT (double strand) [FRT53]” is higher in activity (% excision efficiency relative to FRT1): 18 for the first, 64 for the second.

Going from “AGTTCCTATACTGTAATGAGAATAGGAACT (double strand) [FRT34]” to “AGTTCCTATACTTCCATAAGAATAGGAACT (double strand) [FRT76]”, the activity (% excision efficiency relative to FRT1) falls from 34 to 30.

Compared with “AGTTCCTATACTTCCGAGAGAATAGGAACT (double strand) [FRT43]”, “AGTTCCTATACTTTAGGTAGAATAGGAACT (double strand) [FRT62]” is higher in activity (% excision efficiency relative to FRT1): 14 for the first, 72 for the second.

Compared with “AGTTCCTATACTTTCTCGAGAATAGGAACT (double strand) [FRT86]”, “AGTTCCTATACTTTCTGGAGAATAGGAACT (double strand) [FRT87]” is higher in activity (% excision efficiency relative to FRT1): 12 for the first, 93 for the second.

Going from “AGTTCCTATACTTTCTTGAGAATAGGAACT (double strand) [FRT85]” to “AGTTCCTATACTTTTCTAAGAATAGGAACT (double strand) [FRT57]”, the activity (% excision efficiency relative to FRT1) falls from 116 to 82.

For “AGTTCCTATACTTTTGTGAGAATAGGAACT (double strand) [FRT69]”, the activity (% excision efficiency relative to FRT1) was 9.

same assay, conditions: reference pair; 25 mM Tris pH 7.5, 10 mM MgCl2, 5 mM DTT, 30 C 30 min

“AGTTCCTATACTTTCTAGAGAATAGGAACT (double strand) [FRT1 (wild-type minimal FRT)]” was tested, and the activity (% excision efficiency relative to FRT1) was 100.
